Measured values from paper PMC3042717.

Target: GST-VP16 (aa 452-490) (herpes simplex virus) (UniProt P06492)
Test: pull-down

UniProt P06492, sequence (P06492 452-490): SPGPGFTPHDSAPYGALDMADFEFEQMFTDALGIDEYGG

Substance: wild-type p300 over-expressed in A293 cells, Q09472 1-2414
- fold more efficient pull-down than of p300ΔC: 5 fold
